Measured values taken from the DeepSol protein solubility set.

Assay: soluble on expression in E. coli; label from the status in PepcDB or PDB records

| Sequence | soluble on expression in E. coli |
| --- | --- |
| GQSMTQQLRVLKSGVDIVVGTPGRVIDHLERKSLNLEHIAYFVLDEADEMLNMGFIDDIKEILKSTGPNKRMLFFSATMPKAILGIVKKHMQNYEHITIEKEELTETLTEQIYFEVKESDKFEALCRIIDIEDEFYGLVFCRTKTDTSQLAQKLSDRGYLADALHGDLSQQEREKILNKFRKQKINILAATDVAARGIDIMDLTHVINYALPQDPESYVHRIGRTGRAGKQGTAITFVTSTEFRRLTYIKKTSKSEMKKGHIPEIKDVIKAKRARVRTELEETIKTEEYGDCLEMSQKLLEEYPAEKILAALLKFTFKDKFDESMYTEISSGSSYVDRKGKSRLFIAMGKADGMTPDKLSYFIQEELGDGELKVRDAEIFPHFSFVTLPFAQAETLIEIFKNKRRGSKPFVELAQKSRGRSSKDSGETRSDNRGTSRGNSRNGESRGDSRGESRGTKSTNYSRSTRSTRSTKK | not soluble |
| MNGSKENAMKIDLNSDMGEGFGPYRLCDDEAMMKIVSSANIACGFHGGDPDTMARMVRLAKANGVGIGAHPGLPDRAGFGRREIPFQPDELRQQMLYQLGALMAIAGAEGMKVGHFSFHAAMGNMVNRDPVLADLMMNAIATVDPRLVVFVTPESEIERAAKRAGLKTLALFLADRAYDAEGRLVARGLPGALVKDETSVRARVRRFLTHGQVEAIDGTIIAMPAHSILVHSDTPGSLELARIIRSEIEASGATLAPAAEHAALEHHHHHH | soluble |
| MGSDKIHHHHHHMNNNQTRVLITAIGTMNCTTIISELKKAEEVFYVIGADINGKYSIANSNEVDEFFQFPSVLHDREGYVQYLLNFCKEHNVEVFFCVVDEEVEVVAKHKEDFNAIGITLCLANIDAIITCHNKNLFAEWSEKNIAKYCIKRYENITDVNNDNFPIFIKPVEGRASIGCRKIENMEELWKYASVWDNYIAQEYVTGEIVSVDIVRNRKTEQFEVVQKLELLRNSNGCGIAVEIVDIPEIRQLCCIIADIFNLNGVINAEFFITNKGLKIIEINPRLPAGIEYSCMAGLDVVLNALRIARGEACIFKDIKIGAHYAKRYETYEIK | not soluble |
| MEASSSAQAKIADMREKLGREVRVFETSSISQRPSQVSSADDESDDFYEFTPADFYRLLATKKEDKSLKTRKIREAEEAARRSKLTKAVIRVRFPDNHTLEATFHPSEKIQGLIDLVKRVVAHPDVPFYLYTTPPKKQIKDFSQDFYSAGFVPGAIVYFSNDQPKDDGGSSTPYLNEEILSLKDLEAMTKAVEPVESSSEPATVDSSAVPVEHERKSTEKKTTKPKWFKM | soluble |
| GSGGARGLYLQTVTYNFLKEQGDNRIVRTQALPATRGTVSDRNGAVLALSAPTESLFAVPKDMKEMPSAAQLERLSELVDVPVDVLRNKLEQKGKSFIWIKRQLDPKVAEEVKALGLENFVFEKELKRHYPMGNLFAHVIGFTDIDGKGQEGLELSLEDSLYGEDGAEVVLRDRQGNIVDSLDSPRNKAPQNGKDIILSLDQRIQTLAYEELNKAVEYHQAKAGTVVVLDARTGEILALANTPAYDPNRPGRADSEQRRNRAVTDMIEPGSAIKPFVIAKALDAGKTDLNERLNTQPYKIGPSPVRDTHVYPSLDVRGIMQKSSNVGTSKLSARFGAEEMYDFYHELGIGVRMHSGFPGETAGLLRNWRRWRPIEQATMSFGYGLQLSLLQLARAYTALTHDGVLLPLSFEKQAVAPQGKRIFKESTAREVRNLMVSVTEPGGTGTAGAVDGFDVGAKTGTARKFVNGRYADNKHVATFIGFAPAKNPRVIVAVTIDEPTAHGYYGGVVAGPPFKKIMGGSLNILGISPTKPLTAAAVKTPS | soluble |
| MNRQIPKVPDAIELEYDLDEPPQKVWRAISIPAFREHWLPKEALAQPEAIKVSPGREVCYRLREDTPPFLESTVTFQIASNDRGGTSLRIIHDLPAIKSGRMTKAAANHNGSPIKLAALEHHHHHH | not soluble |
| MENLQIGVVGVGVMGKSLALNFESKGYSVALYDISKEKVDETIEENRGKNLVGTHIVEEFVNSLESPRKILLMVNAGEITDKAIDSLVPHLDKGDILIDGGNTYFVDTIRRNKRLAEEGINFIGAGVSGGEEGALKGPSIMPGGQKDAYEKVKDMLENISAKVNNEPCCSYIGPNGAGHYVKMVHNGIEYGDMQLICEAYFFLKQTLDLTAEEFHEIFAEWNKGELNSYLIEITADIFKKKDEETGKPLVDVILDTAGQKGTGKWTSQSALDLGISLPIITESVFARCISALKEERVNASKVLSGPKDKTAIGVEKAELIEAVRQALYMSKICSYAQGFTQLKAASEEYNWNLDFGSISMLWRGGCIIRAAFLQNIKEAYETNTDLPNLLLDPYFKEIVESYQGGLRQIISMAVQQGIPIPAFSAAISYYDSYRTAKLPANLLQAQRDYFGAHTYKRVDKEGTFHTKWI | not soluble |
| MVINCAFIGFGKSTTRYHLPYVLNRKDSWHVAHIFRRHAKPEEQAPIYSHIHFTSDLDEVLNDPDVKLVVVCTHADSHFEYAKRALEAGKNVLVEKPFTPTLAQAKELFALAKSKGLTVTPYQNRRFDSCFLTAKKAIESGKLGEIVEVESHFDYYRPVAETKPGLPQDGAFYGLGVHTMDQIISLFGRPDHVAYDIRSLRNKANPDDTFEAQLFYGDLKAIVKTSHLVKIDYPKFIVHGKKGSFIKYGIDQQETSLKANIMPGEPGFAADDSVGVLEYVNDEGVTVREEMKPEMGDYGRVYDALYQTITHGAPNYVKESEVLTNLEILERGFEQASPSTVTLAKLEHHHHHH | soluble |
| MSLNVTVHGVPVGSLTREEARAKIESHFAPFLAQPVMLTYSGRTWTPTLAELGAELAIDEAVDKAVAVGRGHDLFTNLQQIGAVWQRGLELPLHLSIDQDALQRYLLDRVAEVERPAVDARLVLHGTTVRVEPSAFGRQVLVNDTLHEIVAALQDLNPDTIALRTRTLEPALRDDAAIVAQDQIAALLAGPITLLIDDRPFVWSLDELARMVRVERIPDPAGDRLVVSIDHELVRARIREIGDATEVKGTYPRLNWNDGRLEIFQEGKPGRRIDEDQVFAAVLDALTKPAEQRTVTVAFREIPPPITAANLDQLGITTLIGVGRSDFTGSAAYRVTNIQAGMRLLHGVLIAPGEEFSFNQTIGRIDRSNGFVEGYAIIQNRTQLEWGGGICQDSTTMFRAAFWAGLPITERWGHSFYISWYDRYAFGPYGDGPGMDATIFTGGPDLKFLNDTGGWLLIQTLVDTHRHLAEVRLYGPDTGRKVLLEGPIITNRTEGHHHHHH | soluble |
| SLRITLEFTGEKNLILPIHYNYIVQGLLYDLMGDTDFAAFLHDVGFQYEKRRFKLFTFSRIEGEFQIVEKPNGQKKIIIKPPFKFTVASPLEEVIIDISKNILKREYCHFNGQKFTLNSLNIENPPIFKEKARIKFISPVVMYTTLRNGEKKYTYYYSPWDEKFSPLLLNNLVKKYELVYKIKPKNPHFKLIPLTEKEDRRYSKVIKYKNVYVKGWMGIYDVETTPELLELAYYTGLGAKNSQGFGCFEIIG | not soluble |
| MTQAIKRVGVTDVVLRDAHQSLFATRLRIDDMLPIAQQLDQIGYWSLECWGGATFDSCIRFLGEDPWQRLRLLKQAMPNTPLQMLLRGQNLLGYRHYADDVVDTFVERAVKNGMDVFRVFDAMNDVRNMQQALQAVKKMGAHAQGTLCYTTSPVHNLQTWVDVAQQLAELGVDSIALKDMAGILTPYAAEELVSTLKKQVDVELHLHCHSTAGLADMTLLKAIEAGVDRVDTAISSMSGTYGHPATESLVATLQGTGYDTGLDIAKLEQIAAYFRDVRKKYHAFEGMMKGSDARILVAQVPGGMLTNMESQLKQQNALDKLDLVLEEIPRVREELGFLPLVTPTSQIVGTQAVINVVLGERYKTITKETSGVLKGEYGKTPAPVNTELQARVLAGAEAITCRPADLIAAEMPTLQDRVLQQAKEQHITLAENAIDDVLTIALFDQVGWKFLANRHNLEHHHHHH | soluble |
| MGSDKIHHHHHHMDFRLRQMEIFRSVMLTGSINGAAKLLFISQPAVSRIIAHTEQTLGLKLFNRAKGKLIPTPEGVALFRQVDEFYEHALQVNNFARDLAQGATGTLNLSSSPCLSYTVMPRAIAQFIARYPKIRVVYHTSQLNCMATEVLSNKVDVAVAVMPIQHPNVKVEVFTTGKMACVLPKDHPLGSQTVLSLADVSAYPLIVHHPSITFGKLVSTAFRDAGLEMRSRVNVFQTDVACSLVRAGAGIAIVDEYTACAGAWHDLMQRPLAEPITLTPCIVRSAFDNQATHADKFIEILRGVAHAR | not soluble |
| MGSDKIHHHHHHMIKIETVLDILKKDGLFREIIDQGHYHYNYSKVIFDSISYDSRKVTEDTLFFAKGAAFKKEYLLSAITQGLAWYVAEKDYEVGIPVIIVNDIKKAMSLIAMEFYGNPQEKLKLLAFTGTKGKTTAAYFAYNILSQGHRPAMLSTMNTTLDGETFFKSALTTPESIDLFDMMNQAVQNDRTHLIMEVSSQAYLVKRVYGLTFDVGVFLNISPDHIGPIEHPSFEDYFYHKRLLMEKSRAVIINSDMDHFSVLKEQVEDQDHDFYGSQFDNQIENSKAFSFSATGKLAGDYDIQLIGNFNQENAVAAGLACLRLGASLEDIKKGIAATRVPGRMEVLTQKNGAKVFIDYAHNGDSLKKLINVVETHQTGKIALVLGSTGNKGESRRKDFGLLLNQHPEIQVFLTADDPNYEDPMAIADEISSYINHPVEKIADRQEAIKAAMAITNHELDAVIIAGKGADCYQIIQGKKESYPGDTAVAENYL | not soluble |
| MRDALHVTADDADATDDAIPDSRETGVTGVVLAGGLSTRLGHDKAVIRLHGEQGPDLLVRTAALLEPLVDEVWISCRPGRCVTGPYLRIYDEVQGLGPFGGVMTALRAAQGPVLVLSCDLPFMERTLLERLLERRGARHPEALMTTFRQEETGFIESLVAVYEYACLPFFEDALTDGVHKLSRVIPAERREDIVYTQNEALPFFNVNYPADLEMARRIIGALLEHHHHHH | not soluble |
| KEPEMRPLGAYDTEELIPVLDYLDQQKINYKLDGNTVSVESSEYNSIKLGMVRSGVNQATEAGDDILLQDMGFGVSQRLEQERLKLSRERQLAQAIEEMKQVRKARVLLALPKHSVFVRHNQEASASVFLTLSTGANLKQQEVDSIVDMVASAVPGMKTSRITVTDQHGRLLSSGSQDPASAARRKEQELERSQEQALREKIDSVLLPILGFGNYTAQVDIQMDFSAVEQTRKRFDPNTPSTRSEYALEDYNNGNMVAGIPGALSNQPPADASIPQDVAQMKDGSVMGQGSVRKESTRNFELDTTISHERKQTGTVARQTVSVAIKDRRQVNPDTGEVTYTPMSEGEINAIRQVLIGTVGFDQSRGDLLNVLSVKFAEPETEQLVDQPIWEHPNFND | not soluble |
| MSLGQLLSHPIEEKELDYKSYTNLTYCIGSMQGYRMTMEDAHDVKINEHENLAVFGIFDGHGGKNCSQYLAEHLPKLVFTKLNKIASAVYLKQVKDIDLKDVFDILKNSFFKIDKDLSHHANMVNCGSTATVVTIIANYIVVANTGDSRCIVSRNGHAKPLSFDHKPSNMGERVRIENSNGYILNNRINEVLALSRAFGDFKFKLPYLSSSRNKYIKENQKLLGDKLITLPPELFQVTVEPDIMLYDMQKLDSPEFLVIACDGVWDCFKNGQLVKLIRDKLSLGWRLNKIVEYILNDSLTMANNYTGIGFDNMTLIIVAIHKEGHHHHHH | soluble |
| MGSDKIHHHHHHMQNWLKQITTGAMIGTTVLVTSACTMRLSESTFIASDEVPVAFTAEFTQQLQQAMPNHLITPLSLEASDHVKLNGFYIDNPNSLTTLVFYQGNGMKIEPHGLSVLTTLSTLNTDILVMDRRGLGASEGQPSINNIIADAQQQLDYLHQQYQPEKVILHGYSLGSFIAADLAKNNKIDALILHGSATNADDWVDEKTPWYMAPFMTLEMPEDFRKTDNKQVVAQYYQGPLLVIAAEEDEEVPPELSEKLFVASQSANKQLIMVPNVGHQGMLDDANTMSQYQTFITEL | not soluble |
